Test results: the supplement of paper PMC10126150
± gives the standard deviation of the averaged measurements.

Test system: ATP
Experiment: switch fluorescence ratio, 500 uM ATP over buffer (Cy3 cluster intensity, sum of 5 cycles each) (fold (ratio)); higher = stronger signal-on switching upon ATP binding; sequences stand for … in TCGTCGGCAGCGTCAGATGTGTATAAGAGACAGTTTTTTTTTTTTTTTTTTTTTTTTT…TC
Settings: aptamer strand: ATP DNA aptamer (quencher-CACCTGGGGGAGTATTGCGGAGGAAGG + anchor), 100 nM annealed; ATP concentration: 500 uM
Summary of the method: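 Exposure to 500 uM ATP lasted 15 min at 22 °C before imaging, and a selection-buffer image was taken beforehand, for Cy3-labelled switching-strand clusters on a modified Illumina MiSeq flow-cell annealed to 100 nM quencher-labelled ATP aptamer. Five buffer/ATP cycles were run with NaOH stripping and re-annealing between them. The fluorescence ratio per cluster is summed target-cycle over summed buffer-cycle Cy3 intensity, averaged per switch-domain sequence. Clusters outside 100-1000 RFU were excluded.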

Row | Sequence | switch fluorescence ratio
1 | TTTTCAAGTC | 1.05 ± 0.15
2 | TCGCCAATTG | 1.0649 ± 0.00052
3 | TAAGAGATTG | 1.01 ± 0.022
4 | TCGAAAACAG | 0.961 ± 0.0078
5 | ACCGGCCTGG | 1 ± 0.025
6 | CAATAATGTG | 0.968 ± 0.034
7 | CCTCAGGGAA | 1.2 ± 0.14
8 | TTTTTATGAC | 1.01 ± 0.029
9 | GCAGTTGGTG | 0.958 ± 0.043
10 | GTTTGATGGG | 0.981 ± 0.033
11 | GCAGCTTCGG | 0.984 ± 0.014
12 | AGTATCTGGG | 0.9886 ± 0.0094
13 | GATAGGAAAT | 0.977 ± 0.036
14 | CATCAATAAT | 1.045 ± 0.0083
15 | TTTCTAGACA | 1.02 ± 0.021
16 | TTAGTCAGGG | 1.02 ± 0.024
17 | AGTGTTTTAA | 0.994 ± 0.033
18 | TTGCATGGGT | 1.01 ± 0.039
19 | GTTAGGTTAT | 1 ± 0.018
20 | CCGACATGGT | 1.27 ± 0.11
21 | TCAGTTGGGA | 0.9697 ± 0.0062
22 | TGGATCAGTG | 0.993 ± 0.046
23 | TTGTCATGGG | 0.958 ± 0.011
24 | TGTTGTTATC | 0.974 ± 0.038
25 | ACGATCGGCT | 1.06 ± 0.2

Row | Sequence | switch fluorescence ratio
26 | GGGATTTTCC | 0.979 ± 0.044
27 | TCTGTGGCCC | 1.01 ± 0.028
28 | AACGTTTAAA | 1.04 ± 0.1
29 | GCGTGTGAGC | 1 ± 0.012
30 | TTCGAGGAGG | 0.981 ± 0.017
31 | GAATATCAAG | 0.9871 ± 0.0064
32 | CTTTACTTTT | 1.014 ± 0.0061
33 | ATGATAAGTA | 1.006 ± 0.0034
34 | CATGGAATCG | 1.02 ± 0.035
35 | ATGGTATGAA | 0.979 ± 0.035
36 | TATATATGTA | 1.01 ± 0.05
37 | CTGAGAACTT | 0.983 ± 0.055
38 | CAATTGTCGT | 0.991 ± 0.033
39 | CTCGCCGCGG | 1.08 ± 0.038
40 | GGAGGAAAGT | 1 ± 0.029
41 | CATAGAATTT | 0.978 ± 0.084
42 | AAAACAGCCG | 0.957 ± 0.1
43 | TCTCGTAACT | 1 ± 0.044
44 | TTAAAAGTAG | 1 ± 0.058
45 | CGTAACAATG | 1.1 ± 0.034
46 | TGGGGCTTTT | 1.02 ± 0.053
47 | TTCTAGGGGG | 1.02 ± 0.056
48 | AACCCTTTCA | 1.06 ± 0.035
49 | ATGGGAAAAA | 1.01 ± 0.014
50 | AGGGGGGACG | 0.915 ± 0.098

Row | Sequence | switch fluorescence ratio
51 | AGTCGGGGGT | 0.99 ± 0.024
52 | TTTGGCCTAG | 1.02 ± 0.041
53 | GGGGAGGCAC | 0.9854 ± 0.002
54 | CGCATTTTGC | 1.19 ± 0.15
55 | CAATTGGCCT | 1.05 ± 0.03
56 | ATTTTCGGCT | 0.99 ± 0.0036
57 | TCGGGGATCA | 0.9752 ± 0.0058
58 | ACGAGGGTCA | 1.01 ± 0.06
59 | CGCTGGCCTT | 0.975 ± 0.016
60 | CCGGGTCGGT | 0.9554 ± 0.0036
61 | GGGGTAATTG | 1.01 ± 0.019
62 | TACGATTTGG | 0.993 ± 0.0027
63 | TTCATGGTGG | 1.01 ± 0.052
64 | ACTGGTATGG | 1.01 ± 0.025
65 | TTGTTTAGCC | 0.989 ± 0.032
66 | ATGGAAGTTA | 1.011 ± 0.0057
67 | CTGTTTTACT | 1.03 ± 0.042
68 | TAGGGGGTGT | 0.991 ± 0.018
69 | CATCTCTAGC | 0.993 ± 0.012
70 | CGGGGTCCTG | 1.03 ± 0.054
71 | AAGGAGGGGG | 1.02 ± 0.058
72 | ATGATTATGA | 1.04 ± 0.029
73 | CCGGGTTTCG | 0.996 ± 0.035
74 | TAATAGTAGT | 0.997 ± 0.022
75 | TAGGGGGAGC | 1.01 ± 0.062

Row | Sequence | switch fluorescence ratio
76 | ATGAGGAGGT | 0.979 ± 0.0036
77 | GCCACGGAGT | 0.964 ± 0.015
78 | GGGGGTACCT | 1.02 ± 0.019
79 | TTTGTTTTTG | 1 ± 0.026
80 | AATGGATTTT | 0.982 ± 0.013
81 | TGGAAAAGCT | 1.06 ± 0.034
82 | ACCCGGGGTT | 0.994 ± 0.013
83 | CAAGTCTATT | 1.01 ± 0.04
84 | GGGAAGTCGT | 0.964 ± 0.039
85 | AAATTTTCGA | 1.018 ± 0.0088
86 | TTAAGTATTG | 0.9956 ± 0.0079
87 | ATGTAAAAGT | 0.986 ± 0.043
88 | GTTTTCCACA | 0.987 ± 0.067
89 | TAGGGGCTG | 1.01 ± 0.015
90 | ATAGAAGAAA | 1.02 ± 0.047
91 | TGAAATTTTA | 0.9926 ± 0.006
92 | TGCCCCGCCT | 0.996 ± 0.044
93 | GGGGTGTATT | 0.984 ± 0.025
94 | TTGTGGGGAG | 0.97 ± 0.024
95 | TTCGGGCCGG | 1.01 ± 0.033
96 | ACATAGGGGT | 1.01 ± 0.013
97 | GACGTTTCTG | 1.01 ± 0.098
98 | GGCATTTAAA | 0.983 ± 0.024
99 | TGGATGGCGT | 1.101 ± 0.0046
100 | ATCCTTTAAC | 1 ± 0.032

Row | Sequence | switch fluorescence ratio
101 | ATCACTTGAC | 1.104 ± 0.0078
102 | TTAAGGATA | 1.01 ± 0.036
103 | TTGCTTTTGG | 1.04 ± 0.11
104 | TCGAAGGGGG | 1.1 ± 0.16
105 | ATTCGTAGGG | 1.01 ± 0.012
106 | GTTGTATTAG | 0.988 ± 0.025
107 | ATGGAGCTAC | 4.67 ± 1.3
108 | TTTGGGGAGG | 1.02 ± 0.058
109 | GGTTGGGATC | 0.9513 ± 0.0082
110 | CCTATAAAGG | 1.03 ± 0.04
111 | TGGCGGATAT | 1.06 ± 0.1
112 | TGGCATTTCC | 1.18 ± 0.11
113 | CGTGCCGTGG | 0.995 ± 0.024
114 | TTACCAGAGT | 1.02 ± 0.011
115 | GGCGAATGGG | 0.98 ± 0.041
116 | TAGCCAAGTC | 1.02 ± 0.01
117 | CGGGGTCTGT | 0.999 ± 0.022
118 | CGGGGCGG | 0.952 ± 0.057
119 | TTTCTCTGAG | 1.04 ± 0.033
120 | TCGTATTACA | 1.011 ± 0.0035
121 | ATCATGGCAC | 1.04 ± 0.025
122 | TTCAGGGGGC | 1.02 ± 0.014
123 | GTTTGTATTA | 0.996 ± 0.011
124 | GGACGGGGTT | 0.97 ± 0.019
125 | GATTTGATTT | 0.991 ± 0.037

Row | Sequence | switch fluorescence ratio
126 | ATTGTTGTTT | 0.981 ± 0.019
127 | TTTCACCGGG | 1.16 ± 0.17
128 | AGGAGTGCCA | 1.017 ± 0.0093
129 | ACGTCAAAAC | 2.91 ± 0.41
130 | GGCATCGTAG | 0.998 ± 0.021
131 | TTATAATATG | 0.9846 ± 0.0035
132 | GTTATGGTAC | 1.03 ± 0.028
133 | TCGGTTGGTT | 0.967 ± 0.023
134 | TAAGATTCGG | 0.968 ± 0.015
135 | GAGAAACATT | 1.06 ± 0.029
136 | ATACGGATGC | 1.06 ± 0.025
137 | CCAGGAGGCG | 0.999 ± 0.015
138 | GGGGCTAAGA | 0.993 ± 0.015
139 | TATACATGAG | 1.03 ± 0.021
140 | AGGTAGGGTA | 0.992 ± 0.031
141 | GGTGGATGCC | 1.02 ± 0.04
142 | TTTATTATAT | 1.01 ± 0.031
143 | GCATTTTTAC | 1.19 ± 0.023
144 | ATTTTGGGGT | 1 ± 0.014
145 | TGTCGTTGGG | 0.9566 ± 0.0035
146 | TTCCAATTAG | 0.968 ± 0.059
147 | TTTAATTGTA | 1.01 ± 0.044
148 | TGGAAAGTAC | 1.28 ± 0.095
149 | GGGACTTACC | 1.08 ± 0.02
150 | GCACGGTCGG | 1.009 ± 0.0021

Row | Sequence | switch fluorescence ratio
151 | CGCAGGATGG | 1.05 ± 0.05
152 | AAGGGTCAAA | 0.985 ± 0.048
153 | ATTTTTTTGC | 1.03 ± 0.029
154 | CTAACGGGCT | 0.995 ± 0.058
155 | CTTGTAAATT | 0.983 ± 0.035
156 | ATGGGGTT | 0.992 ± 0.0053
157 | CGAGGGTCCG | 0.99899 ± 0.00035
158 | ATTTGGGAGT | 1 ± 0.025
159 | TTTTGCGGGA | 1.01 ± 0.057
160 | TGTTGTTGGG | 0.9946 ± 0.0087
161 | GGGGTTATCT | 1.01 ± 0.026
162 | TAAGCGATCA | 1.02 ± 0.018
163 | TCATCCGTTT | 1.13 ± 0.15
164 | TTTTACGTTT | 1.04 ± 0.12
165 | CCATATGGGG | 1.01 ± 0.019
166 | AGTAGGGGAA | 0.995 ± 0.035
167 | GTGGTTTGGA | 0.989 ± 0.031
168 | GATTGCTGGT | 0.9513 ± 0.0046
169 | CACAGGCCCA | 1.04 ± 0.056
170 | GCTTCTTGGC | 0.967 ± 0.034
171 | TCGCAAAGGT | 1.34 ± 0.036
172 | CGGGGAGGCT | 0.988 ± 0.047
173 | TACCAGGGAT | 1.1 ± 0.14
174 | GGTTAGATAC | 1.19 ± 0.025
175 | GGATTTGAGG | 1 ± 0.026

Row | Sequence | switch fluorescence ratio
176 | TTTACGCGTC | 1.16 ± 0.27
177 | ACAAGGAATG | 0.997 ± 0.044
178 | TCATTGTTTT | 1.01 ± 0.019
179 | TACTGAGTTA | 1 ± 0.015
180 | TTGTGGGAAA | 1.02 ± 0.016
181 | TATGGTCATT | 0.99 ± 0.015
182 | GGCAGGGGCT | 1 ± 0.044
183 | AGTGAGAT | 0.9943 ± 0.0097
184 | TTAGGGACGT | 1.01 ± 0.026
185 | TATGTGTTTT | 1.031 ± 0.0034
186 | CGAGCTTGAA | 1.03 ± 0.022
187 | GAATTGTTAG | 0.972 ± 0.028
188 | TTGGTGCCGT | 1.13 ± 0.046
189 | TAATGTTGCA | 1.02 ± 0.029
190 | TTGTATGTAG | 1.02 ± 0.021
191 | GCTATTGGAT | 1.01 ± 0.02
192 | GGAACCCAGA | 0.988 ± 0.021
193 | GATATCAACG | 1 ± 0.047
194 | ATGTTTGGAG | 0.982 ± 0.018
195 | TCGTTTGGTG | 0.986 ± 0.045
196 | ATCATTCGGT | 0.9964 ± 0.0074
197 | TTAAACGCGG | 1.05 ± 0.066
198 | CAGGTAAGCG | 0.969 ± 0.051
199 | TTTTTAAGAG | 1 ± 0.014
200 | CGAGATCGAC | 0.97 ± 0.012
